Laboratory results as given in patent US20150232562A1 (Ablynx, published 2015).
Substitutions are numbered along the chain they refer to.

B1: 15C8 (VHH)
VHH: EVQLVESGGGLVQAGGSLRLSCAASGIAFRIRTMAWYRQAPGKQRDWVATSDSGGTTLYADSVKGRFTVSRDNAENTVYLQMNSLKPEDTAVYYCRDVNRDYWGQGTQVTVSS
notes: C-term myc-His6 tag
B2: 13B12 (VHH)
VHH: B1 VHH with S51I, D52G, G54D, L58I, V69L, D72H
notes: C-term myc-His6 tag
B3: 27B5 (VHH)
VHH: B1 VHH with S21P
notes: C-term myc-His6 tag
B4: 27C7 (VHH)
VHH: B1 VHH with E75D
notes: C-term myc-His6 tag
B5: 17A10 (VHH)
VHH: EVQLVESGGGLVQAGGSLRLSCVASGIPSIRAIAWYRQAPGKQRDWVATSGTGYGATYDDSVKGRFTLSRDNAKNTVYLQMNSLKPEDTAVYYCRDVNRDYWGQGTQVTVSS
notes: C-term myc-His6 tag
B6: 13C4 (VHH)
VHH: EVQLVESGGGLVQAGGSLRLSCVVSGIPSSIRAMAWYRQAPGRQRDWVATIYSPSGSAVYADSVKGRFTISSDNAKSTIYLQMNSLKPDDTAVYYCRDVNREYWGQGTQVTVSS
notes: C-term myc-His6 tag
B7: 13D4 (VHH)
VHH: B6 VHH with K87E
notes: C-term myc-His6 tag
B8: 15B2 (VHH)
VHH: B6 VHH with E102D
notes: C-term myc-His6 tag
B9: 15B11 (VHH)
VHH: B6 VHH with L11S, P54R, S57G, S77N, E102D
notes: C-term myc-His6 tag
B10: 15G5 (VHH)
VHH: B6 VHH with S30T, S77K
notes: C-term myc-His6 tag
B11: 13C9 (VHH)
VHH: EVQLVESGGGLVQAGGSLRLSCVASGIPSIHAMAWYRQAPGKQRDWGATTYSRGGTTYNDSAKGRFTISRDNAKKTVYLQMNSLKPEDTAVYYCRDVNRDYWGQGTQVTVSS
notes: C-term myc-His6 tag
B12: 17D5 (VHH)
VHH: EVQLVESGGGLVQPGGSLRLSCAASGIIGTIRTMAWYRQAPGKQRDWVASIGTRGAPVYADSVNGRFTISRDGATNTVFLQMNNLKPEDTAVYYCRDVNRDYWGQGTQVTVSS
notes: C-term myc-His6 tag
B13: 46G1 (VHH)
VHH: EVQLVESGGGLVQAGGSLRLSCAASGRTFSDDAMGWFRQAPGKERECVASLYLNGDYPYYADSVKGRFTISRDNAKNAVILQMNNLKTEDTAVYYCAAKPGWVARDPSQYNYWGQGTQVTVSS
notes: C-term myc-His6 tag
B14: 46E4 (VHH)
VHH: B13 VHH with T28A, S30K, M34V, L51M, N54D, Q109E
notes: C-term myc-His6 tag
B15: 17B5 (VHH)
VHH: EVQLVESGGGLVQTGGSLRLSCAASGSTFRTDMMGWYRQAPGKQREFVASITKFGSTNYADSVKGRFTISNDNAKDTVYLQMNSLKSEDTAVYYCRNFNRDLWGQGTQVTVSS
notes: C-term myc-His6 tag
B16: 15C9 (VHH)
VHH: EVQLVESGGGLVQAGGSLKLSCVNSGIPSTLRAMAWYRQAPGRQRDWVATSSNTGGTTYDDSVKGRFTISRDNAKNTVYLQMNSLKPEDTGVYYCRDVNRDLWGQGTQVTVSS
notes: C-term myc-His6 tag
B17: 13D10 (VHH)
VHH: EVQLVESGGGLVQPGGSLRLSCAASSVITLDSNAIGWFRQAPGKEREEVSCIASSDGSTYYAESVKGRFTISKDYTRNTVYLQVNSLKPEDTAVYHCATDANPNCGLNVWNSWGQGTQVTVSS
notes: C-term myc-His6 tag
B18: 17C6 (VHH)
VHH: EVQLVESGGGLVQAGGSLTLSCAASGSTSSLDIMAWYRQAPEKQRELVASVSGGGNSDYASSVKGRFTISGDTAKSTLYLQMNSLKPEDTAMYYCYGRDYYYMPFWGQGTQVTVSS
notes: C-term myc-His6 tag
B19: 15G10 (VHH)
VHH: EVQLVESGGGLVQAGGSLSLSCAASGRFFSTRVMAWYRQTPGKQREFVASMRGSGSTNYADSARGRFAISRDNAKNTVYLQMNSLKPEDTAVYYCRDINEDQWGQGTQVTVSS
notes: C-term myc-His6 tag
B20: 15A2 (VHH)
VHH: B19 VHH with V12A
notes: C-term myc-His6 tag
B21: 17A8 (VHH)
VHH: B19 VHH with A63V, T77M, S84T
notes: C-term myc-His6 tag
B22: 17H10 (VHH)
VHH: B19 VHH with A23S, K43N, S50T, M51I, R52H, G53S, N58I, A63V, N83R, E100A
notes: C-term myc-His6 tag
B23: 27A3 (VHH)
VHH: B19 VHH with A23V, A63V, S84T
notes: C-term myc-His6 tag
B24: 30D10 (VHH)
VHH: EVQLVESGGGLVQAGGSLTLSCTASETTVRIRTMAWYRQPPGNQREWVATIGSNGFATYPDSVKGRFTISRDNAKNTVYLQMNSLKPEDTAVYYCRDINRDIWGQGSQVTVSS
notes: C-term myc-His6 tag
B25: 15H4 (VHH)
VHH: EVQLVESGGGLVQAGGSLTLSCAPSESTVSFNTVAWYRQAPGEQREWVATISRQGMSTYPDSVKGRFTISRDNAKNTVYLQMNNLKPEDTAVYYCRDINHDIWGRGSQVTVSS
notes: C-term myc-His6 tag
B26: 17B7 (VHH)
VHH: EVQLVESGGGLVQAGGSLRLSCAASGIISSFRTMAWYRQAPGKQRDWVATIGSDGLANYADSVKGRFTISRDNAKKTVYLQMNSLKPEDTAVYFCRDINRDYWGQGTQVTVSS
notes: C-term myc-His6 tag
B27: 15B6 (VHH)
VHH: B26 VHH with A14P, S29G, K43N, D54A, N58S, K64R, I69L, V92I, F94Y, R100G
notes: C-term myc-His6 tag
B28: 15D2 (VHH)
VHH: EVQLVESGGGLVQAGGSLRLSCVVSGVFGPIRAMAWYRQAPGKQRDWVATIGSSGHPVYTDSVKGRFTFSKDGAKNTVYLQMNSLKPEDTAVYYCRDINRDYWGQGTQVTVSS
notes: C-term myc-His6 tag
B29: 27F2 (VHH)
VHH: EVQLVESGGGLVQAGGSLRLSCAASGIISSFRTLAWYRQAPGKQRDWVATISSAGGTAYADAVKGRFTISISRDNVEYTVDLQMDSLKPEDTAVYYCRDINGDYWGQGTQVTVSS
notes: C-term myc-His6 tag
B30: 15E10 (VHH)
VHH: EVQLVESGGGLVQAGGSLKLSCVASGITFFRYTMGWYRQAPGKERELVAEISSADEPSFADAVKGRFTISRDNAKNTVVLQMNGLKPEDTAVYYCKGSWSYPGLTYWGKGTLVTVSS
notes: C-term myc-His6 tag
B31: 27E7 (VHH)
VHH: EVQLVESGGGLVQAGGSLRLSCAASGITFRRYDMGWYRQFPGKERELVATILSEGDTNYVDPVKGRFTISRDNAKNTVYLQMNDLKPEDTAVYYCNGVWRAIGRTYWGQGTQVTVSS
notes: C-term myc-His6 tag
B32: 47E5 (VHH)
VHH: EVQLVESGGGLVQAGGSLRLSCAASASIFGFDSMGWYRQAPGNERILVAIISNGGTTSYRDSVKGRFTIARDNAKNTVSLQMNSLKPEDTAVYYCNLDRRSYNGRQYWGQGTQVTVSS
notes: C-term myc-His6 tag
B33: 14D4 (VHH)
VHH: EVQLVESGGGLVQAGDSLRLSCAASGRALDTYVMGWFRQAPGDGREFVAHIFRSGITSYASSVKGRFTISRDNAKNTVYLQMASLKPEDTAAYYCAARPSDTTWSESSASWGQGTQVTVSS
notes: C-term myc-His6 tag
B34: 17A5 (VHH)
VHH: EVQLVESGGGLVQPGGSLRLSCAASGFTFDDYSMSWVRQATGKGLEWVSGISWNGGSTNYADSVKGRFTISRDNVKNTLYLQMNSLKSEDTAVYYCAKDLGNSGRGPYTNWGQGTQVTVSS
notes: C-term myc-His6 tag
B35: 15D10 (VHH)
VHH: EVQLVESGGGLVQPGGSLKLSCAASGFTFSSYRMYWVRQAPGKGLEWVSAIKPDGSITYYADSVKGRFTISRDNAKNTVYLQMNSLKPEDTAVYYCATDCGVPGFGWTFSSWGQGTQVTVSS
notes: C-term myc-His6 tag
B36: 13C2 (VHH)
VHH: EVQLVESGGGLVQAGGSLRLSCAASGSTFSINRMAWYRQSPGKQRELVAAVDNDDNTEYSDSVAGRFTISRDNAKNAVHLQMNSLRLEDTAVYYCNAKQLPYLQNFWGQGTQVTVSS
notes: C-term myc-His6 tag
B37: 17G11 (VHH)
VHH: EVQLVESGGGLVQAGGSLRLSCAASGSTFSINRWGWYRQAPGKQRELVAAIDDGGNTEYSDFVNGRFTISRDNPETAVHLQMNSLKLEDTAVYYCNAKQLPYLQNFWGQGTQVTVSS
notes: C-term myc-His6 tag
B38: 17A3 (VHH)
VHH: EVQLVESGGGLVQAGGSLSLSCAASATLHRFDNNWYRQAPGKQRELVATIAHDGSTNYANSVKGRFTISRDNARDTLFLQMHALQPEDTAVYMCNLHRWGLNYWGQGTQVTVSS
notes: C-term myc-His6 tag
B39: 17A6 (VHH)
VHH: EVQLVESGGGLVQPGGSLRLSCAASGFTFSSYAMSWVRQAPGKGLEWVSAISSGGGSITTYADSVKGRFTISTDNAKNTLYLQMSSLKPEDTALYYCAKARSSSSYYDFGSWGQGTQVTVSS
notes: C-term myc-His6 tag

Target: T1, recombinant human ErbB2/Fc chimera (human, UniProt P04626 23-652)
T1 construct: bought from R&D Systems; also called rhErbB2-Fc; rhErb2-Fc; Fc part of the bought chimera not given; not described
Assay: ELISA, coated ErbB2/Fc

Binding result, binds:
B1
B2
B3
B4
B5
B6
B7
B8
B9
B10
B11
B12
B13
B14
B15
B16
B17
B18
B19
B20
B21
B22
B23
B24
B25
B26
B27
B28
B29
B30
B31
B32
B33
B34
B35
B36
B37
B38
B39
